Experimental data from US20260001928A1 (CORTERIA PHARMACEUTICALS, priority 2022, published 2026).
*1 amine or outer side, *2 acyl side, *3 side chain or, on linkers, in order; H or OH if unused. Where no end group is shown, it is not given here. Side-chain parts run from the residue outwards. [ ]: non-standard residue; d: D form. The star is where a group is joined. C20 diacid = O=C(O)CCCCCCCCCCCCCCCCCCC(=O)*; γGlu = O=C(O)[C@H](CCC(=O)[*:2])N[*:1]; NMeI = CC[C@H](C)[C@H](NC)C(=O)O; Aib = CC(C)(N)C(=O)O

Biological target: human corticotropin-releasing factor 2a (CRF2a receptor) (human), Q13324
Sequence (Q13324 20-411): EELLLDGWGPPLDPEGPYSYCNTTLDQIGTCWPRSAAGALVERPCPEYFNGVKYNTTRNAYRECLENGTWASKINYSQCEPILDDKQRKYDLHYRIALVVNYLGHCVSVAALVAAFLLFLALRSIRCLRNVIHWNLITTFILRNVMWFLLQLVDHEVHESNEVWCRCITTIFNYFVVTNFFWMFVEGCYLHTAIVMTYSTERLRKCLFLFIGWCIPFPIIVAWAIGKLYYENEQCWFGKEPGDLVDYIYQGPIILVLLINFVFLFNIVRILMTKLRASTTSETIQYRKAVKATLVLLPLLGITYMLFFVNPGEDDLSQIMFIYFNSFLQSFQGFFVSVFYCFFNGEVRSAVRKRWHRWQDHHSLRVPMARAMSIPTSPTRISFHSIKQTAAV
Experiment: cell-based or functional assay

Binder | EC50 [nM] (cAMP)
Ac-IVLSLD[dV]PIKLK([γGlu-γGlu-C20 diacid])KILLEQEKQKEQREQAETN[Aib]QILAQV-NH2 (SMILES CC[C@H](C)[C@H](NC(C)=O)C(=O)N[C@H](C(=O)N[C@@H](CC(C)C)C(=O)N[C@@H](CO)C(=O)N[C@@H](CC(C)C)C(=O)N[C@@H](CC(=O)O)C(=O)N[C@@H](C(=O)N1CCC[C@H]1C(=O)N[C@H](C(=O)N[C@@H](CCCCN)C(=O)N[C@@H](CC(C)C)C(=O)N[C@@H](CCCCNC(=O)CC[C@H](NC(=O)CC[C@H](NC(=O)CCCCCCCCCCCCCCCCCCC(=O)O)C(=O)O)C(=O)O)C(=O)N[C@@H](CCCCN)C(=O)N[C@H](C(=O)N[C@@H](CC(C)C)C(=O)N[C@@H](CC(C)C)C(=O)N[C@@H](CCC(=O)O)C(=O)N[C@@H](CCC(N)=O)C(=O)N[C@@H](CCC(=O)O)C(=O)N[C@@H](CCCCN)C(=O)N[C@@H](CCC(N)=O)C(=O)N[C@@H](CCCCN)C(=O)N[C@@H](CCC(=O)O)C(=O)N[C@@H](CCC(N)=O)C(=O)N[C@@H](CCCNC(=N)N)C(=O)N[C@@H](CCC(=O)O)C(=O)N[C@@H](CCC(N)=O)C(=O)N[C@@H](C)C(=O)N[C@@H](CCC(=O)O)C(=O)N[C@H](C(=O)N[C@@H](CC(N)=O)C(=O)NC(C)(C)C(=O)N[C@@H](CCC(N)=O)C(=O)N[C@H](C(=O)N[C@@H](CC(C)C)C(=O)N[C@@H](C)C(=O)N[C@@H](CCC(N)=O)C(=O)N[C@H](C(N)=O)C(C)C)[C@@H](C)CC)[C@@H](C)O)[C@@H](C)CC)[C@@H](C)CC)C(C)C)C(C)C) [SEQ ID NO 241] | 0.56 nM
Ac-IVLSLD[dV]PIKLK([γGlu-γGlu-C20 diacid])KILLEQEKQKKQREQAETN[Aib]QILAQV-NH2 (SMILES CC[C@H](C)[C@H](NC(C)=O)C(=O)N[C@H](C(=O)N[C@@H](CC(C)C)C(=O)N[C@@H](CO)C(=O)N[C@@H](CC(C)C)C(=O)N[C@@H](CC(=O)O)C(=O)N[C@@H](C(=O)N1CCC[C@H]1C(=O)N[C@H](C(=O)N[C@@H](CCCCN)C(=O)N[C@@H](CC(C)C)C(=O)N[C@@H](CCCCNC(=O)CC[C@H](NC(=O)CC[C@H](NC(=O)CCCCCCCCCCCCCCCCCCC(=O)O)C(=O)O)C(=O)O)C(=O)N[C@@H](CCCCN)C(=O)N[C@H](C(=O)N[C@@H](CC(C)C)C(=O)N[C@@H](CC(C)C)C(=O)N[C@@H](CCC(=O)O)C(=O)N[C@@H](CCC(N)=O)C(=O)N[C@@H](CCC(=O)O)C(=O)N[C@@H](CCCCN)C(=O)N[C@@H](CCC(N)=O)C(=O)N[C@@H](CCCCN)C(=O)N[C@@H](CCCCN)C(=O)N[C@@H](CCC(N)=O)C(=O)N[C@@H](CCCNC(=N)N)C(=O)N[C@@H](CCC(=O)O)C(=O)N[C@@H](CCC(N)=O)C(=O)N[C@@H](C)C(=O)N[C@@H](CCC(=O)O)C(=O)N[C@H](C(=O)N[C@@H](CC(N)=O)C(=O)NC(C)(C)C(=O)N[C@@H](CCC(N)=O)C(=O)N[C@H](C(=O)N[C@@H](CC(C)C)C(=O)N[C@@H](C)C(=O)N[C@@H](CCC(N)=O)C(=O)N[C@H](C(N)=O)C(C)C)[C@@H](C)CC)[C@@H](C)O)[C@@H](C)CC)[C@@H](C)CC)C(C)C)C(C)C) [SEQ ID NO 243] | 0.13 nM
Ac-IVLSLD[dV]PIKLK([γGlu-γGlu-C20 diacid])KILLEQEKQKAQREQAETN[Aib]QILAQV-NH2 (SMILES CC[C@H](C)[C@H](NC(C)=O)C(=O)N[C@H](C(=O)N[C@@H](CC(C)C)C(=O)N[C@@H](CO)C(=O)N[C@@H](CC(C)C)C(=O)N[C@@H](CC(=O)O)C(=O)N[C@@H](C(=O)N1CCC[C@H]1C(=O)N[C@H](C(=O)N[C@@H](CCCCN)C(=O)N[C@@H](CC(C)C)C(=O)N[C@@H](CCCCNC(=O)CC[C@H](NC(=O)CC[C@H](NC(=O)CCCCCCCCCCCCCCCCCCC(=O)O)C(=O)O)C(=O)O)C(=O)N[C@@H](CCCCN)C(=O)N[C@H](C(=O)N[C@@H](CC(C)C)C(=O)N[C@@H](CC(C)C)C(=O)N[C@@H](CCC(=O)O)C(=O)N[C@@H](CCC(N)=O)C(=O)N[C@@H](CCC(=O)O)C(=O)N[C@@H](CCCCN)C(=O)N[C@@H](CCC(N)=O)C(=O)N[C@@H](CCCCN)C(=O)N[C@@H](C)C(=O)N[C@@H](CCC(N)=O)C(=O)N[C@@H](CCCNC(=N)N)C(=O)N[C@@H](CCC(=O)O)C(=O)N[C@@H](CCC(N)=O)C(=O)N[C@@H](C)C(=O)N[C@@H](CCC(=O)O)C(=O)N[C@H](C(=O)N[C@@H](CC(N)=O)C(=O)NC(C)(C)C(=O)N[C@@H](CCC(N)=O)C(=O)N[C@H](C(=O)N[C@@H](CC(C)C)C(=O)N[C@@H](C)C(=O)N[C@@H](CCC(N)=O)C(=O)N[C@H](C(N)=O)C(C)C)[C@@H](C)CC)[C@@H](C)O)[C@@H](C)CC)[C@@H](C)CC)C(C)C)C(C)C) [SEQ ID NO 244] | 0.28 nM
[NMeI]VLSLD[dV]PIKLK([γGlu-γGlu-C20 diacid])KILLEQEKQKEQREQAETN[Aib]QILAQV-NH2 (N-terminus assumed; SMILES CC[C@H](C)[C@H](NC)C(=O)N[C@H](C(=O)N[C@@H](CC(C)C)C(=O)N[C@@H](CO)C(=O)N[C@@H](CC(C)C)C(=O)N[C@@H](CC(=O)O)C(=O)N[C@@H](C(=O)N1CCC[C@H]1C(=O)N[C@H](C(=O)N[C@@H](CCCCN)C(=O)N[C@@H](CC(C)C)C(=O)N[C@@H](CCCCNC(=O)CC[C@H](NC(=O)CC[C@H](NC(=O)CCCCCCCCCCCCCCCCCCC(=O)O)C(=O)O)C(=O)O)C(=O)N[C@@H](CCCCN)C(=O)N[C@H](C(=O)N[C@@H](CC(C)C)C(=O)N[C@@H](CC(C)C)C(=O)N[C@@H](CCC(=O)O)C(=O)N[C@@H](CCC(N)=O)C(=O)N[C@@H](CCC(=O)O)C(=O)N[C@@H](CCCCN)C(=O)N[C@@H](CCC(N)=O)C(=O)N[C@@H](CCCCN)C(=O)N[C@@H](CCC(=O)O)C(=O)N[C@@H](CCC(N)=O)C(=O)N[C@@H](CCCNC(=N)N)C(=O)N[C@@H](CCC(=O)O)C(=O)N[C@@H](CCC(N)=O)C(=O)N[C@@H](C)C(=O)N[C@@H](CCC(=O)O)C(=O)N[C@H](C(=O)N[C@@H](CC(N)=O)C(=O)NC(C)(C)C(=O)N[C@@H](CCC(N)=O)C(=O)N[C@H](C(=O)N[C@@H](CC(C)C)C(=O)N[C@@H](C)C(=O)N[C@@H](CCC(N)=O)C(=O)N[C@H](C(N)=O)C(C)C)[C@@H](C)CC)[C@@H](C)O)[C@@H](C)CC)[C@@H](C)CC)C(C)C)C(C)C) [SEQ ID NO 242] | 0.22 nM
